Results on two molecules are retold here after US20190276526A1 (AbbVie / Abbott, published 2019).

One test addresses T1, Rat RGMa-His (rat) (UniProt D4A188).
T1 sequence: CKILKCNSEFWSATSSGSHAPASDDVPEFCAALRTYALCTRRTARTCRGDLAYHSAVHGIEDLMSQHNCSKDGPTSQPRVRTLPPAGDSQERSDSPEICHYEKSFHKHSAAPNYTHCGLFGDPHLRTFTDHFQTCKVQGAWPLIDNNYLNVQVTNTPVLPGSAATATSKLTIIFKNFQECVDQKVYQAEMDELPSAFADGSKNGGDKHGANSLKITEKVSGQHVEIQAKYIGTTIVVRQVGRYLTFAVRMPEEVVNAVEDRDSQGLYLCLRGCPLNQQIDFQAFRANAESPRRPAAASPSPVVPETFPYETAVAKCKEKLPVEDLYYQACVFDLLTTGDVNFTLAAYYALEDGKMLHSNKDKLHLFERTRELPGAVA
As to the kind of experiment: BIAcore.

The target of a further test is T2, hRGMa-Fc (human, UniProt Q96B86 47-422, limits assumed, biotinylated in the neogenin ELISA and the MSD assay).
T2 construct: also called biot-hRGMa-Fc; biotinylated hRGMa-Fc; not shown: Fc part
T2 sequence: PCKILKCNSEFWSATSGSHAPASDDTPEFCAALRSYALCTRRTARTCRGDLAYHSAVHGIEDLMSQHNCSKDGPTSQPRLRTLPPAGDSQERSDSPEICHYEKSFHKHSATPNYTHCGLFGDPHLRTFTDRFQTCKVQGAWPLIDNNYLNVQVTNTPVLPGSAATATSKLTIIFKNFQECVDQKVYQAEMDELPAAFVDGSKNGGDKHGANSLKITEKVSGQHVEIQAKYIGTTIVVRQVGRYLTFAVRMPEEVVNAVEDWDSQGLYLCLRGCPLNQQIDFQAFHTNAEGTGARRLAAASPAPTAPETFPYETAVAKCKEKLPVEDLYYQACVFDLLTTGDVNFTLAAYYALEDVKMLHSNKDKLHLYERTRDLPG
As to the kind of experiment: HCS (high content analysis) live cell binding inhibition assay: Fc-tagged RGMa complexed with Cy3-labeled anti-Fc antibody, preincubated with the antibody, then added to cells for 30 min at 37 C; blocked: RGMa-Fc binding to SH-SY5Y cells; n=2. The method, then: FIGS. 13A-F and 14A-H illustrate the neutralizing effects of the specified antibodies on RGMa binding to neuronal cells using a live cell binding assay on SH-SY5Y cells and rat hippocampal primary neurons. Fc-tagged RGMa and Cy3-labeled anti-Fc antibodies are complexed at 4° C. for 60 minutes, followed by an incubation of the complex with a blocking antibody at room temperature for 10 minutes. The RGMa-Cy3 +antibody complex is then added to cells together with Hoechsts 33342 for 30 minutes at 37° C. to allow binding onto the cells. The cell are then washed twice in culture medium and fixed with PFH. Cell imaging is performed with the BD Pathway and images analyzed with the Definiens Architect software.

For orientation: kon means a measure of how fast the partners come together. A lower kon goes with slow association.

B1: AE12-1-V (antibody, V domains shown)
VH: EVQLVQSGAEVKKPGASVKVSCKASGYTFTSHGISWVRQAPGQGLDWMGWISPYSGNTNYAQKLQGRVTMTTDTSTSTAYMELSSLRSEDTAVYYCARVGSGPYYYMDVWGQGTLVTVSS
VL: QSALTQPRSVSGSPGQSVTISCTGTSSSVGDSIYVSWYQQHPGKAPKLMLYDVTKRPSGVPDRFSGSKSGNTASLTISGLQAEDEADYYCVSYAGTDTLFGGGTKVTVL
Turning to B1, the kon with Rat RGMa-His (rat) was 22000 M⁻¹ s⁻¹.

B2: AE12-6 (antibody, V domains shown)
VH: EVQLVQSGAEVKKPGASVKVSCKASGYIFTNYDIAWVRQAPGQGLEWMGWMNPDSGNTGFVQKFKGRVTATSNTDITTAYMELSSLTSEDTAVYYCARDRFGSGYDLDHWGQGTLVTVSS
VL: SYELTQPPSVSVAPGQTARITCGGNNIGSKSVHWYQQKPGQAPVLVVYDDSDRPSGIPERFSGSNSGNTATLTISRVEAGDEADYYCQVWGSSSDHYVFGTGTKVTVL
notes: lambda light chain
Turning to B2, the “IC50 (read off the curve)” value with hRGMa-Fc was about 10 nM.
